From article PMC9482650, “Quantitative fragmentomics allow affinity mapping of interactomes” (Nature Communications, 2022)

T1: APBA1_2, Q02410
T1 sequence (Q02410 742-832, limits assumed, looked up): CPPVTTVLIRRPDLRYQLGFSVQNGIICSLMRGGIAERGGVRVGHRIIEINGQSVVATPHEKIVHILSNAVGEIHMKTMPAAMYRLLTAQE


target: T1, APBA1_2, Q02410; test: holdup assay; set-up: key: below the threshold = too weak to quantify, mostly under pKd 3.1 to 4; settings: plain residues with an end cap or a label only (N-terminal biotin on a linker: ado-ado)

| Binder | pKd |
| --- | --- |
| KKMPSIESDV [GRIN2A, Q12879] | below the threshold |
| MLSKQSESAI [FLVCR1, Q9Y5Y0] | below the threshold |
| PEYLGLDVPV [ERBB2, P04626] | below the threshold |
| YRLAQESGLV [ABCC6, O95255] | below the threshold |
| LSEFKAMDSI [CTNNA1, P35221] | below the threshold |
| TLPRKRMSSI [GPRC6A, Q5T6X5] | below the threshold |
| LKVPPEERLI [CRB2, Q5IJ48] | below the threshold |
| TPPAAKKSRI [BAZ1A, Q9NRL2] | below the threshold |
| RKPKPSSSCC [RAB9A, P51151] | below the threshold |
| AKPSRISTVV [IQSEC2, Q5JU85] | 3.49 |
| QSPANIYYKV [EFNB1, P52799] | below the threshold |
| QSARLWETSI [ADAM22, Q9P0K1] | below the threshold |
| HLRARKSEWV [GJD4, Q96KN9] | 4.73 |
| QHKTQLQTLI [BPIFA2, Q96DR5] | below the threshold |
| DDPSTAETVL [ABCA7, Q8IZY2] | below the threshold |
| VNKSKLLTDV [KCNA1, Q09470] | 3.56 |
| SAAKVLTSMC [GHRHR, Q02643] | below the threshold |
| DDENIRTSDV [PLEKHA2, Q9HB19] | below the threshold |
| SGSLKLMTTV [DACT1, Q9NYF0] | 3.5 |
| SNAGNTATKA [NOSTRIN, Q8IVI9] | below the threshold |
| HSGYRLNDYV [CLDN14, O95500] | 3.84 |

The remaining lines, values ahead:

| pKd | Binder |
| --- | --- |
| 4.47 | TKGPRGPTRV [SAPCD1, Q5SSQ6] |
| below the threshold | KKAPTNEFYA [SDC4, P31431] |
| 3.5 | VDSTVKVWTC [TRAF7, Q6Q0C0] |
| 3.87 | TACCHSETVV [TGFA, P01135] |
| below the threshold | ETQVTAETVI [TMEM225B, P0DP42] |
| below the threshold | TASPAKETSF [SLC2A7, Q6PXP3] |
| below the threshold | TSQESEDTYL [TBC1D10A, Q9BXI6] |
| 3.79 | QGPVETESVV [SLC45A4, Q5BKX6] |
| 3.86 | TSSMRGMDAV [RSRC2, Q7L4I2] |

target: DLG2_3, Q15700; test: holdup assay; set-up: key: below the threshold = too weak to quantify, mostly under pKd 3.1 to 4; settings: plain residues with an end cap or a label only (N-terminal biotin on a linker: ado-ado)

| Binder | pKd |
| --- | --- |
| KKMPSIESDV [GRIN2A, Q12879] | 3.74 |
| MLSKQSESAI [FLVCR1, Q9Y5Y0] | below the threshold |
| PEYLGLDVPV [ERBB2, P04626] | below the threshold |
| YRLAQESGLV [ABCC6, O95255] | below the threshold |
| LSEFKAMDSI [CTNNA1, P35221] | below the threshold |
| TLPRKRMSSI [GPRC6A, Q5T6X5] | 3.84 |
| LKVPPEERLI [CRB2, Q5IJ48] | below the threshold |
| TPPAAKKSRI [BAZ1A, Q9NRL2] | below the threshold |
| RKPKPSSSCC [RAB9A, P51151] | 3.53 |
| AKPSRISTVV [IQSEC2, Q5JU85] | 4.34 |
| QSPANIYYKV [EFNB1, P52799] | below the threshold |
| QSARLWETSI [ADAM22, Q9P0K1] | 4.47 |
| HLRARKSEWV [GJD4, Q96KN9] | 4.16 |
| QHKTQLQTLI [BPIFA2, Q96DR5] | below the threshold |
| DDPSTAETVL [ABCA7, Q8IZY2] | 3.88 |
| VNKSKLLTDV [KCNA1, Q09470] | 3.57 |
| SAAKVLTSMC [GHRHR, Q02643] | 3.8 |
| DDENIRTSDV [PLEKHA2, Q9HB19] | below the threshold |
| SGSLKLMTTV [DACT1, Q9NYF0] | 4.4 |
| SNAGNTATKA [NOSTRIN, Q8IVI9] | 3.6 |
| HSGYRLNDYV [CLDN14, O95500] | below the threshold |

The next lines start with the values.

| pKd | Binder |
| --- | --- |
| 4.55 | TKGPRGPTRV [SAPCD1, Q5SSQ6] |
| 3.62 | KKAPTNEFYA [SDC4, P31431] |
| 3.73 | VDSTVKVWTC [TRAF7, Q6Q0C0] |
| 4.05 | TACCHSETVV [TGFA, P01135] |
| 3.66 | ETQVTAETVI [TMEM225B, P0DP42] |
| 3.88 | TASPAKETSF [SLC2A7, Q6PXP3] |
| below the threshold | TSQESEDTYL [TBC1D10A, Q9BXI6] |
| below the threshold | QGPVETESVV [SLC45A4, Q5BKX6] |
| below the threshold | TSSMRGMDAV [RSRC2, Q7L4I2] |

target: NHERF2_2, Q15599; test: holdup assay; set-up: key: below the threshold = too weak to quantify, mostly under pKd 3.1 to 4; settings: plain residues with an end cap or a label only (N-terminal biotin on a linker: ado-ado)
Sequence (Q15599 142-238): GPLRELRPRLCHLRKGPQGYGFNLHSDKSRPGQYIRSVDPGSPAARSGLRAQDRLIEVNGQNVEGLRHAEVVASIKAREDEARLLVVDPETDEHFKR

| Binder | pKd |
| --- | --- |
| KKMPSIESDV [GRIN2A, Q12879] | below the threshold |
| MLSKQSESAI [FLVCR1, Q9Y5Y0] | below the threshold |
| PEYLGLDVPV [ERBB2, P04626] | below the threshold |
| YRLAQESGLV [ABCC6, O95255] | below the threshold |
| LSEFKAMDSI [CTNNA1, P35221] | below the threshold |
| TLPRKRMSSI [GPRC6A, Q5T6X5] | below the threshold |
| LKVPPEERLI [CRB2, Q5IJ48] | below the threshold |
| TPPAAKKSRI [BAZ1A, Q9NRL2] | 3.58 |
| RKPKPSSSCC [RAB9A, P51151] | below the threshold |
| AKPSRISTVV [IQSEC2, Q5JU85] | below the threshold |
| QSPANIYYKV [EFNB1, P52799] | below the threshold |
| QSARLWETSI [ADAM22, Q9P0K1] | 3.83 |
| HLRARKSEWV [GJD4, Q96KN9] | below the threshold |
| QHKTQLQTLI [BPIFA2, Q96DR5] | 3.58 |
| DDPSTAETVL [ABCA7, Q8IZY2] | 4.42 |
| VNKSKLLTDV [KCNA1, Q09470] | below the threshold |
| SAAKVLTSMC [GHRHR, Q02643] | below the threshold |
| DDENIRTSDV [PLEKHA2, Q9HB19] | below the threshold |
| SGSLKLMTTV [DACT1, Q9NYF0] | below the threshold |
| SNAGNTATKA [NOSTRIN, Q8IVI9] | below the threshold |
| HSGYRLNDYV [CLDN14, O95500] | below the threshold |

The next lines start with the values.

| pKd | Binder |
| --- | --- |
| below the threshold | TKGPRGPTRV [SAPCD1, Q5SSQ6] |
| below the threshold | KKAPTNEFYA [SDC4, P31431] |
| below the threshold | VDSTVKVWTC [TRAF7, Q6Q0C0] |
| below the threshold | TACCHSETVV [TGFA, P01135] |
| below the threshold | ETQVTAETVI [TMEM225B, P0DP42] |
| 4.66 | TASPAKETSF [SLC2A7, Q6PXP3] |
| 5.52 | TSQESEDTYL [TBC1D10A, Q9BXI6] |
| 3.63 | QGPVETESVV [SLC45A4, Q5BKX6] |
| below the threshold | TSSMRGMDAV [RSRC2, Q7L4I2] |

target: PDZRN4_1, Q6ZMN7; test: holdup assay; set-up: key: below the threshold = too weak to quantify, mostly under pKd 3.1 to 4; settings: plain residues with an end cap or a label only (N-terminal biotin on a linker: ado-ado)
Sequence (Q6ZMN7 213-318): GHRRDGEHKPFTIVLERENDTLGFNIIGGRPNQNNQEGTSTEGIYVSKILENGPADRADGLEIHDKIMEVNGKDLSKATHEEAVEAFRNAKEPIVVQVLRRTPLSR

| Binder | pKd |
| --- | --- |
| KKMPSIESDV [GRIN2A, Q12879] | below the threshold |
| MLSKQSESAI [FLVCR1, Q9Y5Y0] | 3.62 |
| PEYLGLDVPV [ERBB2, P04626] | 3.52 |
| YRLAQESGLV [ABCC6, O95255] | below the threshold |
| LSEFKAMDSI [CTNNA1, P35221] | below the threshold |
| TLPRKRMSSI [GPRC6A, Q5T6X5] | below the threshold |
| LKVPPEERLI [CRB2, Q5IJ48] | below the threshold |
| TPPAAKKSRI [BAZ1A, Q9NRL2] | below the threshold |
| RKPKPSSSCC [RAB9A, P51151] | below the threshold |
| AKPSRISTVV [IQSEC2, Q5JU85] | below the threshold |
| QSPANIYYKV [EFNB1, P52799] | below the threshold |
| QSARLWETSI [ADAM22, Q9P0K1] | 5 |
| HLRARKSEWV [GJD4, Q96KN9] | below the threshold |
| QHKTQLQTLI [BPIFA2, Q96DR5] | below the threshold |
| DDPSTAETVL [ABCA7, Q8IZY2] | 4.66 |
| VNKSKLLTDV [KCNA1, Q09470] | below the threshold |
| SAAKVLTSMC [GHRHR, Q02643] | below the threshold |
| DDENIRTSDV [PLEKHA2, Q9HB19] | below the threshold |
| SGSLKLMTTV [DACT1, Q9NYF0] | below the threshold |
| SNAGNTATKA [NOSTRIN, Q8IVI9] | below the threshold |
| HSGYRLNDYV [CLDN14, O95500] | below the threshold |

Further lines, results first:

| pKd | Binder |
| --- | --- |
| 3.67 | TKGPRGPTRV [SAPCD1, Q5SSQ6] |
| below the threshold | KKAPTNEFYA [SDC4, P31431] |
| below the threshold | VDSTVKVWTC [TRAF7, Q6Q0C0] |
| 3.67 | TACCHSETVV [TGFA, P01135] |
| below the threshold | ETQVTAETVI [TMEM225B, P0DP42] |
| below the threshold | TASPAKETSF [SLC2A7, Q6PXP3] |
| 3.8 | TSQESEDTYL [TBC1D10A, Q9BXI6] |
| 3.64 | QGPVETESVV [SLC45A4, Q5BKX6] |
| below the threshold | TSSMRGMDAV [RSRC2, Q7L4I2] |
